The subject of the data set is Vesicular stomatitis virus (whole virion) (Vesicular stomatitis virus).
“CTCCTCTGACTGTAACCACGTACCACCCGTGACCCTCACATCCCTCCTCTGTTCTCCGCGGGCTTCTGGACTACCTATGC [SwAp13]” had a binding signal (ohm (RCTV-RCTB)) of 1980.

“CTCCTCTGACTGTAACCACGCGCCCTCAGAACTTTTGTATCCGAACACCTGCATCGTCCGGGCTTCTGGACTACCTATGC [SwAp1]” came in with a binding signal (ohm (RCTV-RCTB)) of 1040. “CTCCTCTGACTGTAACCACGTACCACCCGTGACCCTTACATCCCTCCTCTGTTCTCCGCGGGCTTCTGGACTACCTATGC [SwAp12]” gave a binding signal (ohm (RCTV-RCTB)) of 2180. In turn, “CTCCTCTGACTGTAACCACGTGCCCCCTCCATCCCGAGTAACCTACGTCCATGTCTCGCTGGCTTCTGGACTACCTATGC [SwAp3]” came in with a binding signal (ohm (RCTV-RCTB)) of 803.

“TCCTCTGACTGTAACCACGCAGCCACCATACTGTCCCGTTTGCCCCCGCCGATTCCGTCGGCTTCTGGACTACCTATGC [SwAp11]” gave a binding signal (ohm (RCTV-RCTB)) of 373. Take “CTCCTCTGACTGTAACCACGNNNNNNNNNNNNNNNNNNNNNNNNNNNNNNNNNNNNNNNGGCTTCTGGACTACCTATGC [Pool 10]”: the binding signal (ohm (RCTV-RCTB)) was 182.

Consider “CTCCTCTGACTGTAACCACGTACCACCCGTGACGCGCACATCCCTCCTCTGTTCTCCGCGGGCTTCTGGACTACCTATGC [SwAp2]”, for which the binding signal (ohm (RCTV-RCTB)) came out at 1420. As to “CTCCTCTGACTGTAACCACGTACCACCCGTGACCCTCACATCCCTCCTCTGACGTAACCACGCGGGCTTCTGGACTACCTATGC [SwAp8]”, the binding signal (ohm (RCTV-RCTB)) stood at 1680. Under “CTCCTCTGACTGTAACCACGTACCACCCGTGACCCTCACATCCCTCCTCTGTTCTCCGCGGGCTTCTGGACTACCTATGC [SwAp5]” stands 838; under “CTCCTCTGACTGTAACCACGTACCACCCGTGGCCCTCACATCCCTCCTCTGTTCTCCGCGGGCTTCTGGACTACCTATGC [SwAp9]”, 1180. For “CTCCTCTGACTGTAACCACGTACCACCCGTGGCCCTCACATCCCTCCTCTGTTCTCCGCGGGCTTCTGGACTACCTATGC [SwAp7]”, the binding signal (ohm (RCTV-RCTB)) worked out at 1770.

For the sequence “CTCCTCTGACTGTAACCACGTGGCACTGTTGTCATCACTGTCCCCCCCTAACTCGTCCGTGGCTTCTGGACTACCTATGC [SwAp6]”, the binding signal (ohm (RCTV-RCTB)) amounted to 1290. Turning to “CTCCTCTGACTGTAACCACGTGCCCCCTCCATCCCGAGTAACCTACGTCCATGTCTCGCTGGCTTCTGGACTACCTATGC [SwAp4]”, the binding signal (ohm (RCTV-RCTB)) stood at 955. Under “CTCCTCTGACTGTAACCACGTACCGCCCGTGACCCTCACATCCCTCCTCTGTTCTCCGCGGGCTTCTGGACTACCTATGC [SwAp10]” stands 3720; under “CTCCTCTGACTGTAACCACGGCACCCCGAGGCAATTTCGCGCATAGTTCATCCTGTTTGGGGCTTCTGGACTACCTATGC [SwAp15]”, 930; under “CTCCTCTGACTGTAACCACGTACCACCCTTGACCCTCACATCCCTCCTCTGTTCTCCGCGGGCTTCTGGACTACCTATGC [SwAp14]”, 709.

The values above are taken from patent US20140342918.
